To fix the notation:
B1: recombinant human IL-12 (rhIL-12) control (ligand)
chain 1: IWELKKDVYVVELDWYPDAPGEMVVLTCDTPEEDGITWTLDQSSEVLGSGKTLTIQVKEFGDAGQYTCHKGGEVLSHSLLLLHKKEDGIWSTDILKDQKEPKNKTFLRCEAKNYSGRFTCWWLTTISTDLTFSVKSSRGSSDPQGVTCGAATLSAERVRGDNKEYEYSVECQEDSACPAAEESLPIEVMVDAVHKLKYENYTSSFFIRDIIKPDPPKNLQLKPLKNSRQVEVSWEYPDTWSTPHSYFSLTFCVQVQGKSKREKKDRVFTDKTSATVICRKNASISVRAQDRYYSSSWSEWASVPCS
chain 2: RNLPVATPDPGMFPCLHHSQNLLRAVSNMLQKARQTLEFYPCTSEEIDHEDITKDKTSTVEACLPLELTKNESCLNSRETSFITNGSCLASRKTSFMMALCLSSIYEDLKMYQVEFKTMNAKLLMDPKRQIFLDQNMLAVIDELMQALNFNSETVPQKSSLEEPDFYKTKIKLCILLHAFRIRAVTIDRVMSYLNAS
B2: rhIL-12RB2-Fc (Fc fusion)
chain: KIDACKRGDVTVKPSHVILLGSTVNITCSLKPRQGCFHYSRRNKLILYKFDRRINFHHGHSLNSQVTGLPLGTTLFVCKLACINSDEIQICGAEIFVGVAPEQPQNLSCIQKGEQGTVACTWERGRDTHLYTEYTLQLSGPKNLTWQKQCKDIYCDYLDFGINLTPESPESNFTAKVTAVNSLGSSSSLPSTFTFLDIVRPLPPWDIRIKFQKASVSRCTLYWRDEGLVLLNRLRYRPSNSRLWNMVNVTKAKGRHDLLDLKPFTEYEFQISSKLHLYKGSWSDWSESLRAQTPEEEPTGMLDVWYMKRHIDYSRQQISLFWKNLSVSEARGKILHYQVTLQELTGGKAMTQNITGHTSWTTVIPRTGNWAVAVSAANSKGSSLPTRINIMNLCEAGLLAPRQVSANSEGMDNILVTWQPPRKDPSAVQEYVVEWRELHPGGDTQVPLNWLRSRPYNVSALISENIKSYICYEIRVYALSGDQGGCSSILGNSKHKAPLSGPHINAITEEKGSILISWNSIPVQEQMGCLLHYRIYWKERDSNSQPQLCEIPYRVSQNSHPINSLQPRVTYVLWMTALTAAGESSHGNEREFCLQGKAN

Assay in all cases: SPR; KD estimated
One test addresses rhIL-12RB1-Fc (human, UniProt P42701 24-545).
The test “rhIL-12RB2-Fc” deals with B2.
For a further test, the target named is AK384.

Among the data in patent US20230159603A1 (published 2023) are Kd values, retold here.

A word on the Kd: it is the free concentration of one partner at which half of the binding sites on the other are occupied at equilibrium, for simple one-to-one binding.

For B1, the figures for the dissociation constant Kd with rhIL-12RB1-Fc and with rhIL-12RB2-Fc were 60.1 nM and 0.617 nM, respectively. For B2, the Kd in the test with AK384 is 1.7 nM.
